Measured values as given in US20240209341A1 (University of California, published 2024).

How the values were obtained:
[1] = target: T1, recombinant TLR4 ectodomain, His-tagged (Sino Biological) (human, UniProt O00206 24-631); assay: pull-down with BE-1 anti-AIBP antibody, immunoblot
T1 construct: extracellular domain; Bought protein; also called eTLR4; eTLR4-His; not shown: His-tag
Method: (§1) Co-immunoprecipitation assays for TLR4 binding. Pull down assay of eTLR4 and wtAIBP or mutAIBP in test tube was performed by mixing 1 μg of eTLR4 (Sino Biological) and AIBP in PBS containing 0.5% Triton X-100 and incubating for 1 hour at room temperature. Samples were precleared by adding Protein A/G Sepharose beads at room temperature for 30 min, followed by addition of 1 μg of BE-1 monoclonal anti-AIBP antibody and incubation for 2 hours. Protein A/G Sepharose beads were added and incubated for an additional one hour, followed by 5 washes with PBS containing 0.5% Triton X-100 and immunoblot of samples.
FIG. 9: Identifies sequence motifs that contribute to AIBP binding to TLR4: FIG. 9. Identification of the domain in the AIBP molecule responsible for TLR4 binding. A, Human AIBP: signal peptide (aa 1-24), previously uncharacterized N-terminal domain (aa 25-51), and YjeF_N domain (aa 52-288). B, Flag-tagged deletion mutants of human AIBP were co-expressed in HEK293 cells with the Flag-tagged TLR4 ectodomain (eTLR4). Cell lysates were immunoprecipitated (IP) with an anti-TLR4 antibody and immunoblotted (IB) with an anti-Flag antibody. […] IP of eTLR4 and wtAIBP or mutAIBP in a test tube with an anti-AIBP antibody; blot and quantification from 3 independent experiments (D). […]

human APOA1 = target: T2, human APOA1 (human, UniProt P02647 25-267); assay: ELISA, AIBP-coated plates incubated with 5 µg/ml human APOA1
T2 construct: also called ApoA-I
Method: ELISA binding assays. To assess AIBP-TLR4 binding, 96-well plates were coated with 5 μg/ml of eTLR4, washed three times with PBS containing 0.05% Tween-20, blocked with PBS containing 1% BSA, and incubated with wtAIBP or mutAIBP, followed by 2 μg/ml of a biotinylated BE-1 anti-AIBP monoclonal antibody. To assess AIBP-APOA1 binding, plates were coated with BSA, wtAIBP or mutAIBP, washed, blocked, and incubated with 5 μg/ml of human APOA1 (a gift from Dmitri Sviridov, Baker Heart and Diabetes Institute, Melbourne, Australia), followed by a biotinylated anti-APOA1 antibody (Academy Bio-Medical Company, RRID:AB_1238781). In both assays, neutravidin-AP was added and incubated for 45 minutes at room temperature, followed by LumiPhos 530 (Lumigen) for 90 min, and luminescence was measured using a luminescence plate reader (BioTek, Winooski, Vermont).
FIG. 9: Identifies sequence motifs that contribute to AIBP binding to TLR4: FIG. 9. Identification of the domain in the AIBP molecule responsible for TLR4 binding. A, Human AIBP: signal peptide (aa 1-24), previously uncharacterized N-terminal domain (aa 25-51), and YjeF_N domain (aa 52-288). […] IP of eTLR4 and wtAIBP or mutAIBP in a test tube with an anti-AIBP antibody; blot and quantification from 3 independent experiments (D). […]

[2] = target: T1, recombinant TLR4 ectodomain, His-tagged …; assay: co-immunoprecipitation with recombinant ectodomain of TLR4; proteins from E. coli
[3] = target: T1, recombinant TLR4 ectodomain, His-tagged …; assay: pull-down with anti-AIBP antibody, western blot with anti-his antibody
Method: as §1
A pulldown assay was performed using compounds as provided herein. Compounds 3, 7, 8 or 9 and other constructs described in FIGS. 13 and 14 were purified from either a baculovirus (BD Bioscience) or CHO (ExpiCHO, Expression Systems, ThermoFisher) cell expression system and incubated with TLR4 protein (Sino biological). Pull-down was performed with anti-AIBP antibody described. Bound TLR4 to AIBP was detected by western blot with an anti-his antibody (both modified AIBP and TLR4 have his-tag). Detailed experimental information is provided in example 1 as to pull down method.

[4] = target: T1, recombinant TLR4 ectodomain, His-tagged …; assay: test-tube co-IP with anti-TLR4 antibody, immunoblot with anti-His antibody
Text: FIG. 9: Identifies sequence motifs that contribute to AIBP binding to TLR4: FIG. 9. Identification of the domain in the AIBP molecule responsible for TLR4 binding. A, Human AIBP: signal peptide (aa 1-24), previously uncharacterized N-terminal domain (aa 25-51), and YjeF_N domain (aa 52-288). B, Flag-tagged deletion mutants of human AIBP were co-expressed in HEK293 cells with the Flag-tagged TLR4 ectodomain (eTLR4). Cell lysates were immunoprecipitated (IP) with an anti-TLR4 antibody and immunoblotted (IB) with an anti-Flag antibody. C, His-tagged human (hu), mouse (mo) and zebrafish (zf) AIBP, all lacking the signal peptide, expressed in a baculovirus/insect cell system, were combined in a test-tube with eTLR4-His, followed by IP with an anti-TLR4 antibody and IB with an anti-His antibody. D-H, Binding of His-tagged wild type (wt, 25-288 aa) and the deletion mutant (mut, 52-288 aa) human AIBP to eTLR4, APOA1 and microglia. IP of eTLR4 and wtAIBP or mutAIBP in a test tube with an anti-AIBP antibody; blot and quantification from 3 independent experiments (D). ELISA with plates coated with eTLR4 and incubated with wtAIBP or mutAIBP (n=3) (E). ELISA with plates coated with BSA, wtAIBP or mutAIBP and incubated with APOA1 (F). […]

T1 sequence (O00206 24-631): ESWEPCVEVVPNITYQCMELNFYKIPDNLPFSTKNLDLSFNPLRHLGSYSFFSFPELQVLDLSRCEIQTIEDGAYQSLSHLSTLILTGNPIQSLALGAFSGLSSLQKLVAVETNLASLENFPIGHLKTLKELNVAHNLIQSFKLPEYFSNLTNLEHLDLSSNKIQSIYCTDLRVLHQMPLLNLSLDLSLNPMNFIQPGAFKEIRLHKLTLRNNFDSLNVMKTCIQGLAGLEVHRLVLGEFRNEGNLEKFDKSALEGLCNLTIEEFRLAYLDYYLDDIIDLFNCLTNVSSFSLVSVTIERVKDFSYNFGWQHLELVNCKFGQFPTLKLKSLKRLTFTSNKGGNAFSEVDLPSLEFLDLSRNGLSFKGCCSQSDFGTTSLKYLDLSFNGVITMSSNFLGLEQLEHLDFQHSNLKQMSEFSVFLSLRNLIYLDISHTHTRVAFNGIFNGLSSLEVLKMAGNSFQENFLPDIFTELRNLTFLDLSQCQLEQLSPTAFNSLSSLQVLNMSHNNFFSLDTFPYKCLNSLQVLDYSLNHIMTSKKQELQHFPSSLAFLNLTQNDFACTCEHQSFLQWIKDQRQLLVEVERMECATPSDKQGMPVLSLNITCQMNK
T2 sequence (P02647 25-267 limits assumed): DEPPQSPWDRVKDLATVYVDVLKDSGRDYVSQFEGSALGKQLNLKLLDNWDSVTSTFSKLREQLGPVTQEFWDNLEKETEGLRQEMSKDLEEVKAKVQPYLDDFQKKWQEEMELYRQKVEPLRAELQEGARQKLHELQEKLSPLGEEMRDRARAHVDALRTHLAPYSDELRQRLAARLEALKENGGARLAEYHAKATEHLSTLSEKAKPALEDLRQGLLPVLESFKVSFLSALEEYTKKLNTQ

B1: His-tagged deletion mutant (mut, 52-288 aa) human AIBP (other)
chain: MASTVVKYLSQEEAQAVDQELFNEYQFSVDQLMELAGLSCATAIAKAYPPTSMSRSPPTVLVICGPGNNGGDGLVCARHLKLFGYEPTIYYPKRPNKPLFTALVTQCQKMDIPFLGEMPAEPMTIDELYELVVDAIFGFSFKGDVREPFHSILSVLKGLTVPIASIDIPSGWDVEKGNAGGIQPDLLISLTAPKKSATQFTGRYHYLGGRFVPPALEKKYQLNLPPYPDTECVYRLQ
notes: Baculovirus/insect cell expression, pAcHLT-C vector; also called mutAIBP; mut AIBP; not shown: N-terminal His-tag of the pAcHLT-C vector
**Q.** Does B1 bind [1]?
**A.** Result: no binding

**Q.** Does B1 bind (human APOA1)?
**A.** Result: binds

B2: d51 AIBP-his (expressed in E. coli) (other)
chain: MASTVVKYLSQEEAQAVDQELFNEYQFSVDQLMELAGLSCATAIAKAYPPTSMSRSPPTVLVICGPGNNGGDGLVCARHLKLFGYEPTIYYPKRPNKPLFTALVTQCQKMDIPFLGEMPAEPMTIDELYELVVDAIFGFSFKGDVREPFHSILSVLKGLTVPIASIDIPSGWDVEKGNAGGIQPDLLISLTAPKKSATQFTGRYHYLGGRFVPPALEKKYQLNLPPYPDTECVYRLQ
notes: not shown: his tag, read from the name as C-terminal
**Q.** Does B2 bind [2]?
**A.** Result: no binding

B3: cleaved His-d24 AIBP (other)
chain: GSPGLDGICSRQTIACRSGPTWWGPQRLNSGGRWDSEVMASTVVKYLSQEEAQAVDQELFNEYQFSVDQLMELAGLSCATAIAKAYPPTSMSRSPPTVLVICGPGNNGGDGLVCARHLKLFGYEPTIYYPKRPNKPLFTALVTQCQKMDIPFLGEMPAEPMTIDELYELVVDAIFGFSFKGDVREPFHSILSVLKGLTVPIASIDIPSGWDVEKGNAGGIQPDLLISLTAPKKSATQFTGRYHYLGGRFVPPALEKKYQLNLPPYPDTECVYRLQ
notes: also called putative cleavage product of His-d24 AIBP
**Q.** Does B3 bind [3]?
**A.** Result: no binding

B4: His-tagged zebrafish (zf) AIBP lacking the signal peptide (other, UniProt Q6DHK1 29-283, looked up)
chain: SSAASNIYSKHLTHRPTCTMANTGVKYLGQEEAQQIDEELFSDFSFSVDQLMELAGLSCATAVAKGYPVTSLLKSPARVLVICGPGNNGGDGLVCARHLKLFGYEPSVLYPKRPNKQLFQNLSIQCQKMEIPFLTEMPEADLIDEAYSLVVDAIFGFSFKGAVREPFGEILSQLKKITVPIASVDIPSGWDVEKGCPDGIQPDMLISLTAPKKSAALFKGRFHFLGGRFVPPVLEQKYQLNLPQYPGTECVFQLN
notes: mature; also called zebrafish wild type AIBP; not shown: N-terminal His-tag of the pAcHLT-C vector
**Q.** Does B4 bind [4]?
**A.** Result: no binding
